Results reported in publication PMC11011275, “Impact of Protein Nanoparticle Shape on the Immunogenicity of Antimicrobial Glycoconjugate Vaccines” (International Journal of Molecular Sciences, 2024).

Target: the molecule itself
Experiment: negative-stain transmission electron microscopy; Hcp1cc nanotubes incubated with the reducing agent DTT (nanorings)

B1: Pseudomonas aeruginosa Hemolysin-coregulated protein 1 double mutant G90C + R157C (Hcp1cc) (natural protein)
chain: MAVDMFIKIGDVKGESKDKTHAEEIDVLAWSWGMSQSGSMHMGGGGGAGKVNVQDLSFTKYIDKSTPNLMMACSSGKHYPQAKLTIRKACGENQVEYLIITLKEVLVSSVSTGGSGGEDRLTENVTLNFAQVQVDYQPQKADGAKDGGPVKYGWNICQNVQA
notes: Hemolysin-coregulated protein 1 (Hcp1) of Pseudomonas aeruginosa with G90C and R157C; printed monomer mass 18.3 kD; 6 copies make one ring; without reducing agent the rings stack into disulfide-bonded nanotubes (up to 8-9 rings as purified, up to 14-18 rings after the oligomerization process); also called Hcp1cc nanoring; Hcp1cc nanotube; source: tangential flow filtration
stoichiometry N: 6 monomers
